Data taken from the supplement of paper PMC9112550, “Optimization of the antimicrobial peptide Bac7 by deep mutational scanning” (BMC Biology, 2022).

Tested on: Escherichia coli TOP10
Test: shrunken log2 fold change of peptide-encoding DNA abundance (4.5 h post-induction vs induction); higher = less antimicrobial activity (less host growth inhibition)
Details: time post-induction: 4.5 h; library: site-saturation at positions 5, 18, 19, 20
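Note: peptides expressed intracellularly from a pBAD plasmid library in pooled LB shake-flask culture, induced with 0.3% L-arabinose, DNA abundance read by NGS, three biological replicates, DESeq2 with apeglm shrinkage.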

RRIRNRPPRLPRPRPRPHEAPRP
shrunken log2 fold change: -0.0663

RRIRNRPPRLPRPRPRPHEPPRP
shrunken log2 fold change: 0.247

RRIRNRPPRLPRPRPRPHFDPRP
shrunken log2 fold change: -0.356

RRIRNRPPRLPRPRPRPHFIPRP
shrunken log2 fold change: 0.121

RRIRNRPPRLPRPRPRPHKIPRP
shrunken log2 fold change: -0.657

RRIRNRPPRLPRPRPRPHKLPRP
shrunken log2 fold change: -0.411

RRIRNRPPRLPRPRPRPHLSPRP
shrunken log2 fold change: -0.259

RRIRNRPPRLPRPRPRPHMHPRP
shrunken log2 fold change: -0.582

RRIRNRPPRLPRPRPRPHPPPRP
shrunken log2 fold change: 0.304

RRIRNRPPRLPRPRPRPHQCPRP
shrunken log2 fold change: -0.0318

RRIRNRPPRLPRPRPRPHQHPRP
shrunken log2 fold change: -0.654

RRIRNRPPRLPRPRPRPHQQPRP
shrunken log2 fold change: 0.317

RRIRNRPPRLPRPRPRPHQTPRP
shrunken log2 fold change: -0.0525

RRIRNRPPRLPRPRPRPHRCPRP
shrunken log2 fold change: -0.0136

RRIRNRPPRLPRPRPRPHSEPRP
shrunken log2 fold change: -0.438

RRIRNRPPRLPRPRPRPHTQPRP
shrunken log2 fold change: -0.328

RRIRNRPPRLPRPRPRPHWAPRP
shrunken log2 fold change: 0.13

RRIRNRPPRLPRPRPRPHWCPRP
shrunken log2 fold change: 0.0251

RRIRNRPPRLPRPRPRPHWMPRP
shrunken log2 fold change: -0.0835

RRIRNRPPRLPRPRPRPHYPPRP
shrunken log2 fold change: -0.465

RRIRNRPPRLPRPRPRPHYWPRP
shrunken log2 fold change: -0.388

RRIRNRPPRLPRPRPRPIAIPRP
shrunken log2 fold change: -0.0153

RRIRNRPPRLPRPRPRPIAMPRP
shrunken log2 fold change: -0.0835

RRIRNRPPRLPRPRPRPICHPRP
shrunken log2 fold change: -0.1

RRIRNRPPRLPRPRPRPICMPRP
shrunken log2 fold change: -0.195

RRIRNRPPRLPRPRPRPIDNPRP
shrunken log2 fold change: -0.0163

RRIRNRPPRLPRPRPRPIFFPRP
shrunken log2 fold change: 0.0887

RRIRNRPPRLPRPRPRPIGHPRP
shrunken log2 fold change: -0.0117

RRIRNRPPRLPRPRPRPIGRPRP
shrunken log2 fold change: -0.0141

RRIRNRPPRLPRPRPRPIINPRP
shrunken log2 fold change: -0.265

RRIRNRPPRLPRPRPRPIITPRP
shrunken log2 fold change: -0.14

RRIRNRPPRLPRPRPRPIKQPRP
shrunken log2 fold change: -0.0298

RRIRNRPPRLPRPRPRPILHPRP
shrunken log2 fold change: -0.684

RRIRNRPPRLPRPRPRPINGPRP
shrunken log2 fold change: -0.262

RRIRNRPPRLPRPRPRPINIPRP
shrunken log2 fold change: 0.00587

RRIRNRPPRLPRPRPRPINRPRP
shrunken log2 fold change: -0.0423

RRIRNRPPRLPRPRPRPIPHPRP
shrunken log2 fold change: 0.134

RRIRNRPPRLPRPRPRPIPVPRP
shrunken log2 fold change: 1.22

RRIRNRPPRLPRPRPRPIQYPRP
shrunken log2 fold change: -0.377

RRIRNRPPRLPRPRPRPIRSPRP
shrunken log2 fold change: -0.389

RRIRNRPPRLPRPRPRPITMPRP
shrunken log2 fold change: -0.533

RRIRNRPPRLPRPRPRPIVCPRP
shrunken log2 fold change: -0.301

RRIRNRPPRLPRPRPRPIVMPRP
shrunken log2 fold change: -0.0105

RRIRNRPPRLPRPRPRPIWAPRP
shrunken log2 fold change: 0.0814

RRIRNRPPRLPRPRPRPIWLPRP
shrunken log2 fold change: 0.0648

RRIRNRPPRLPRPRPRPIWVPRP
shrunken log2 fold change: -0.0659

RRIRNRPPRLPRPRPRPIWYPRP
shrunken log2 fold change: -0.0752

RRIRNRPPRLPRPRPRPIYQPRP
shrunken log2 fold change: 0.0607

RRIRNRPPRLPRPRPRPIYTPRP
shrunken log2 fold change: -0.288

RRIRNRPPRLPRPRPRPKDWPRP
shrunken log2 fold change: 0.0256

RRIRNRPPRLPRPRPRPKDYPRP
shrunken log2 fold change: -0.232

RRIRNRPPRLPRPRPRPKEEPRP
shrunken log2 fold change: 0.0169

RRIRNRPPRLPRPRPRPKETPRP
shrunken log2 fold change: -0.0238

RRIRNRPPRLPRPRPRPKFFPRP
shrunken log2 fold change: -0.298

RRIRNRPPRLPRPRPRPKKYPRP
shrunken log2 fold change: -0.69

RRIRNRPPRLPRPRPRPKMEPRP
shrunken log2 fold change: 0.015

RRIRNRPPRLPRPRPRPKMPPRP
shrunken log2 fold change: 0.341

RRIRNRPPRLPRPRPRPKNEPRP
shrunken log2 fold change: -0.0366

RRIRNRPPRLPRPRPRPKNQPRP
shrunken log2 fold change: -0.54

RRIRNRPPRLPRPRPRPKQRPRP
shrunken log2 fold change: 0.432

RRIRNRPPRLPRPRPRPKRHPRP
shrunken log2 fold change: -0.455

RRIRNRPPRLPRPRPRPKRVPRP
shrunken log2 fold change: 0.148

RRIRNRPPRLPRPRPRPKSEPRP
shrunken log2 fold change: -0.414

RRIRNRPPRLPRPRPRPKSYPRP
shrunken log2 fold change: -0.0423

RRIRNRPPRLPRPRPRPKVMPRP
shrunken log2 fold change: -0.0516

RRIRNRPPRLPRPRPRPKWHPRP
shrunken log2 fold change: 0.129

RRIRNRPPRLPRPRPRPKYEPRP
shrunken log2 fold change: -0.167

RRIRNRPPRLPRPRPRPKYVPRP
shrunken log2 fold change: -0.00968

RRIRNRPPRLPRPRPRPLDMPRP
shrunken log2 fold change: -0.0766

RRIRNRPPRLPRPRPRPLFIPRP
shrunken log2 fold change: -1.03

RRIRNRPPRLPRPRPRPLFMPRP
shrunken log2 fold change: -0.235

RRIRNRPPRLPRPRPRPLIKPRP
shrunken log2 fold change: -0.651

RRIRNRPPRLPRPRPRPLKRPRP
shrunken log2 fold change: -0.0368

RRIRNRPPRLPRPRPRPLLDPRP
shrunken log2 fold change: 0.0489

RRIRNRPPRLPRPRPRPLLEPRP
shrunken log2 fold change: 0.0286

RRIRNRPPRLPRPRPRPLLHPRP
shrunken log2 fold change: -0.135

RRIRNRPPRLPRPRPRPLNHPRP
shrunken log2 fold change: -0.286

RRIRNRPPRLPRPRPRPLNVPRP
shrunken log2 fold change: -0.0912

RRIRNRPPRLPRPRPRPLQRPRP
shrunken log2 fold change: 0.0374

RRIRNRPPRLPRPRPRPLRSPRP
shrunken log2 fold change: 0.119

RRIRNRPPRLPRPRPRPLSMPRP
shrunken log2 fold change: -0.012

RRIRNRPPRLPRPRPRPLSNPRP
shrunken log2 fold change: -0.386

RRIRNRPPRLPRPRPRPLTKPRP
shrunken log2 fold change: 0.164

RRIRNRPPRLPRPRPRPLTVPRP
shrunken log2 fold change: 0.0619

RRIRNRPPRLPRPRPRPLVHPRP
shrunken log2 fold change: 0.0443

RRIRNRPPRLPRPRPRPLVPPRP
shrunken log2 fold change: -0.213

RRIRNRPPRLPRPRPRPLWGPRP
shrunken log2 fold change: -0.192

RRIRNRPPRLPRPRPRPMCDPRP
shrunken log2 fold change: -0.386

RRIRNRPPRLPRPRPRPMCTPRP
shrunken log2 fold change: -0.124

RRIRNRPPRLPRPRPRPMDMPRP
shrunken log2 fold change: -0.235

RRIRNRPPRLPRPRPRPMEKPRP
shrunken log2 fold change: 0.0048

RRIRNRPPRLPRPRPRPMEYPRP
shrunken log2 fold change: -0.0389

RRIRNRPPRLPRPRPRPMHKPRP
shrunken log2 fold change: -0.131

RRIRNRPPRLPRPRPRPMIAPRP
shrunken log2 fold change: -0.42

RRIRNRPPRLPRPRPRPMIVPRP
shrunken log2 fold change: -0.017

RRIRNRPPRLPRPRPRPMKTPRP
shrunken log2 fold change: -0.0393

RRIRNRPPRLPRPRPRPMKVPRP
shrunken log2 fold change: 0.0279

RRIRNRPPRLPRPRPRPMMAPRP
shrunken log2 fold change: -0.106

RRIRNRPPRLPRPRPRPMMKPRP
shrunken log2 fold change: 2.77

RRIRNRPPRLPRPRPRPMNLPRP
shrunken log2 fold change: 0.0249

RRIRNRPPRLPRPRPRPMNPPRP
shrunken log2 fold change: -0.235

RRIRNRPPRLPRPRPRPMPAPRP
shrunken log2 fold change: -0.142

RRIRNRPPRLPRPRPRPMPQPRP
shrunken log2 fold change: -0.0321

RRIRNRPPRLPRPRPRPMQHPRP
shrunken log2 fold change: -0.0549

RRIRNRPPRLPRPRPRPMRFPRP
shrunken log2 fold change: -0.00968

RRIRNRPPRLPRPRPRPMRLPRP
shrunken log2 fold change: 0.286

RRIRNRPPRLPRPRPRPMRRPRP
shrunken log2 fold change: -0.0657

RRIRNRPPRLPRPRPRPMRSPRP
shrunken log2 fold change: 1.09

RRIRNRPPRLPRPRPRPMSFPRP
shrunken log2 fold change: -0.0524

RRIRNRPPRLPRPRPRPMTGPRP
shrunken log2 fold change: -0.149

RRIRNRPPRLPRPRPRPMTQPRP
shrunken log2 fold change: -0.249

RRIRNRPPRLPRPRPRPMYAPRP
shrunken log2 fold change: -0.192

RRIRNRPPRLPRPRPRPNASPRP
shrunken log2 fold change: 0.374

RRIRNRPPRLPRPRPRPNDMPRP
shrunken log2 fold change: -0.457

RRIRNRPPRLPRPRPRPNETPRP
shrunken log2 fold change: -0.0424

RRIRNRPPRLPRPRPRPNFSPRP
shrunken log2 fold change: -0.0166

RRIRNRPPRLPRPRPRPNICPRP
shrunken log2 fold change: -0.0714

RRIRNRPPRLPRPRPRPNINPRP
shrunken log2 fold change: -0.638

RRIRNRPPRLPRPRPRPNIVPRP
shrunken log2 fold change: -0.115

RRIRNRPPRLPRPRPRPNLKPRP
shrunken log2 fold change: -0.33

RRIRNRPPRLPRPRPRPNMAPRP
shrunken log2 fold change: -0.214

RRIRNRPPRLPRPRPRPNMDPRP
shrunken log2 fold change: -0.0443

RRIRNRPPRLPRPRPRPNNEPRP
shrunken log2 fold change: -0.208

RRIRNRPPRLPRPRPRPNPMPRP
shrunken log2 fold change: -0.0603

RRIRNRPPRLPRPRPRPNQPPRP
shrunken log2 fold change: -0.055

RRIRNRPPRLPRPRPRPNRHPRP
shrunken log2 fold change: -0.17

RRIRNRPPRLPRPRPRPNSCPRP
shrunken log2 fold change: -0.137

RRIRNRPPRLPRPRPRPNSPPRP
shrunken log2 fold change: 0.0941

RRIRNRPPRLPRPRPRPNSWPRP
shrunken log2 fold change: -0.3

RRIRNRPPRLPRPRPRPNVHPRP
shrunken log2 fold change: -0.309

RRIRNRPPRLPRPRPRPNVVPRP
shrunken log2 fold change: -0.122

RRIRNRPPRLPRPRPRPNYDPRP
shrunken log2 fold change: -0.222

RRIRNRPPRLPRPRPRPNYHPRP
shrunken log2 fold change: -0.801

RRIRNRPPRLPRPRPRPPCKPRP
shrunken log2 fold change: 0.0896

RRIRNRPPRLPRPRPRPPIHPRP
shrunken log2 fold change: -0.582

RRIRNRPPRLPRPRPRPPISPRP
shrunken log2 fold change: 0.129

RRIRNRPPRLPRPRPRPPKDPRP
shrunken log2 fold change: 0.131

RRIRNRPPRLPRPRPRPPKQPRP
shrunken log2 fold change: 0.22

RRIRNRPPRLPRPRPRPPLDPRP
shrunken log2 fold change: 0.0724

RRIRNRPPRLPRPRPRPPMWPRP
shrunken log2 fold change: -0.115

RRIRNRPPRLPRPRPRPPPVPRP
shrunken log2 fold change: 0.933

RRIRNRPPRLPRPRPRPPQCPRP
shrunken log2 fold change: -0.000221

RRIRNRPPRLPRPRPRPPQFPRP
shrunken log2 fold change: 0.334

RRIRNRPPRLPRPRPRPPQRPRP
shrunken log2 fold change: 0.457

RRIRNRPPRLPRPRPRPPQWPRP
shrunken log2 fold change: 0.315

RRIRNRPPRLPRPRPRPPRGPRP
shrunken log2 fold change: 1.3

RRIRNRPPRLPRPRPRPPTEPRP
shrunken log2 fold change: 0.389

RRIRNRPPRLPRPRPRPPTIPRP
shrunken log2 fold change: 0.244

RRIRNRPPRLPRPRPRPPTVPRP
shrunken log2 fold change: 0.175

RRIRNRPPRLPRPRPRPPVVPRP
shrunken log2 fold change: 0.000966
